We go through one molecule from article PMC11748958.

Where only a bound is given, the exact number is not on record here.

This assay has as its target human ERG potassium channel (human) (UniProt Q12809).
Chain of UniProt Q12809 (Q12809 whole entry): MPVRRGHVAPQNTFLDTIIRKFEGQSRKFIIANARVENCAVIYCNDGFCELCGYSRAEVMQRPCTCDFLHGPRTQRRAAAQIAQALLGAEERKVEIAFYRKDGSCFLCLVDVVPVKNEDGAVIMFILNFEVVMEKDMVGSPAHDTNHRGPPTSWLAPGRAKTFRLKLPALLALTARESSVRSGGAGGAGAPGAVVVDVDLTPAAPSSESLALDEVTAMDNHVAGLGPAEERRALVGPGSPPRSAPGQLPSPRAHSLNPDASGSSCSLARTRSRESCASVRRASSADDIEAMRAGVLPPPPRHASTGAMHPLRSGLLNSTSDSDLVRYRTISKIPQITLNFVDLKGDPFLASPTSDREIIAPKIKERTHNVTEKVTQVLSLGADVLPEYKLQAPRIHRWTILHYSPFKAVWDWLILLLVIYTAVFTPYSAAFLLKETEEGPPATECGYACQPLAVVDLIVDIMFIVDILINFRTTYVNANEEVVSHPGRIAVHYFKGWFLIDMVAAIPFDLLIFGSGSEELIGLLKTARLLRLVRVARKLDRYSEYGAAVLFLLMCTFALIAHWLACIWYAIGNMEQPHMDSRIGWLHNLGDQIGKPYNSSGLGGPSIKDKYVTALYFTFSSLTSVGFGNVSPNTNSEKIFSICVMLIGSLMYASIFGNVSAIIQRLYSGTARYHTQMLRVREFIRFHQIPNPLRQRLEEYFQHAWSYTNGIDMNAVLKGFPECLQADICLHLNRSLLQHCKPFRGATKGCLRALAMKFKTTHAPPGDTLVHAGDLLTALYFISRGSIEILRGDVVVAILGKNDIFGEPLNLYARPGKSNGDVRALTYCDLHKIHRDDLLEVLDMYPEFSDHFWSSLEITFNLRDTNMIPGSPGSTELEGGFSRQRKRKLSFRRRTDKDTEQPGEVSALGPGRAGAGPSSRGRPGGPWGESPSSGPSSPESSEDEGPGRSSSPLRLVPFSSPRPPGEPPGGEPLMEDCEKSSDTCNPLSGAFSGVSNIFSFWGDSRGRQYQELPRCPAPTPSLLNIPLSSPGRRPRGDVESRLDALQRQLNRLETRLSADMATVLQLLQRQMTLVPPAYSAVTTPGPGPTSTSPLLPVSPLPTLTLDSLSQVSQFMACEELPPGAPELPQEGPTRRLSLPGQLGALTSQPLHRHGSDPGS

B1: recombinant Phα1β (peptide)
chain: MACIPRGEICTDDCECCGCDNQCYCPPGSSLGIFKCSCAHANKYFCNRKKEKCKKA
B1: the IC50 of inhibition of hERG channel activity, thallium flux (FLIPR Potassium Assay) in HEK293-hERG cells was greater than 900 pmol and the percent inhibition of hERG channel activity, thallium flux (FLIPR Potassium Assay) in HEK293-hERG cells, Phα1β 56-900 pM for 30 minutes; highest value at 900 pM came out at 13.6%.
